Laboratory results: patent US20180305460A1

Legend:
[1] = molecular target: interferon-alpha/β receptor (IFNAR) (human) (UniProt P17181)
[2] = molecular target: interferon-alpha/β receptor (IFNAR) (human) (UniProt P17181); remark: listed apart in the source
[3] = molecular target: interferon-alpha/β receptor (IFNAR) (human) (UniProt P17181); remark: listed apart in the source

Sequence of interferon-alpha/β receptor (IFNAR) (human) (P17181 28-557 limits assumed): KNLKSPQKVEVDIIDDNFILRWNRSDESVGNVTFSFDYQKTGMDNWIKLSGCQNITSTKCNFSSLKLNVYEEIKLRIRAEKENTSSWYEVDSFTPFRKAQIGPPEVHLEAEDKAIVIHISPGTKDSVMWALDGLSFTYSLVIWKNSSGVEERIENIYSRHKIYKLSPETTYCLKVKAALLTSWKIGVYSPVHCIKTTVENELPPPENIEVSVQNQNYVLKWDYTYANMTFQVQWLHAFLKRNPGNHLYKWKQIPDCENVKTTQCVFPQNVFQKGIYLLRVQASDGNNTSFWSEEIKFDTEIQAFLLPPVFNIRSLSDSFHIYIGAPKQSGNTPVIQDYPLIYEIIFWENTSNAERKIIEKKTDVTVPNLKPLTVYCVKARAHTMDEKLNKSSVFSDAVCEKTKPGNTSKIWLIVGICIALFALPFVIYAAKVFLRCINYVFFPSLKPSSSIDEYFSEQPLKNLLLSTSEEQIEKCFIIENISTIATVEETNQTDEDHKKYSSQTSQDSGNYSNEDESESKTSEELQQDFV

half-maximal concentration headed 'IC50 pM' on the sheet (paragraph 233 calls the values EC50; the curves rise); iLite IFN-response-element luciferase reporter (RLU) [1]: 0.0645 pM
EC50; HEK-Blue IFN-alpha/β SEAP reporter (A630nm), left panel, the unit comes from the x axis 'Ifnα2b Equivalents in pM' [2]: 1.13 pM
EC50; HEK-Blue IFN-alpha/β SEAP reporter (A630nm), right panel, the unit comes from the x axis 'IFNα2b equivlaents in pM' [2]: 1.52 pM
EC50; HEK-Blue IFN-alpha/β SEAP reporter (A630) on CD38-negative cells; table column headed 'IFNa2b', curve labelled 'Intron A', the unit comes from the x axis 'IFN pM' [3]: 1.52 pM
Substance: Intron A (ligand)
